System: growth of yeast strains under 51 stress conditions
Assay: Growth assays in 51 stress conditions (Fig. 1E-F, S2D, S5B)
Assay type: cell-based, Saccharomyces cerevisiae
Set-up: key to Growth (Fig. S2D) / growth of ABP1 SH3-swapped strains in stress condition: log2 colony size, average of median per strain (growth score)
Settings: FigS2D
In short: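 Colony sizes at 74 h on 51 stress media (37 °C) were log2 transformed, corrected for plate effects, and averaged across two plates as per-plate medians (growth score). Strains arrayed in 12 replicates with WT border, grown first on YPD for two days at 30 °C.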

B1: PIN3 (protein, UniProt Q06449 2-215, looked up)
[PSI+] inducibility protein 3: SASLINRSLTNIRTELDFLKGSNVISNDVYDQINKSLPAKWDPANAPRNASPASLEYVEALYQFDPQQDGDLGLKPGDKVQLLEKLSPEWYKGSCNGRTGIFPANYVKPAFSGSNGPSNLPPPPQYKAQELQQIPTQNSAASSYQQQPFPPPSTNYYQQPQQQPQQAPPPQQQQQQQQHQSSHSHLKSFGSKLGNAAIFGAGASIGSDIVNNIF
Bathophenanthroline.0.1uM
  growth of ABP1 SH3-swapped strains in stress condition: 10.8166
Bathophenanthroline.10uM
  growth of ABP1 SH3-swapped strains in stress condition: 10.6603
Bathophenanthroline.1uM
  growth of ABP1 SH3-swapped strains in stress condition: 10.7601
CaCl2.100mM
  growth of ABP1 SH3-swapped strains in stress condition: 10.8086
CaCl2.250mM
  growth of ABP1 SH3-swapped strains in stress condition: 10.7002
CaCl2.500mM
  growth of ABP1 SH3-swapped strains in stress condition: 10.193
Caffein.10mM
  growth of ABP1 SH3-swapped strains in stress condition: 10.1104
Caffein.2mM
  growth of ABP1 SH3-swapped strains in stress condition: 10.9501
CdCl2.100uM
  growth of ABP1 SH3-swapped strains in stress condition: 9.413
CdCl2.10uM
  growth of ABP1 SH3-swapped strains in stress condition: 10.8515
CdCl2.50uM
  growth of ABP1 SH3-swapped strains in stress condition: 9.821
CuSO4.1mM
  growth of ABP1 SH3-swapped strains in stress condition: 10.439
CuSO4.5mM
  growth of ABP1 SH3-swapped strains in stress condition: 7.85
Cycloheximide.0.05.uM
  growth of ABP1 SH3-swapped strains in stress condition: 11.0946
Cycloheximide.0.2.uM
  growth of ABP1 SH3-swapped strains in stress condition: 10.6691
Cycloheximide.0.5.uM
  growth of ABP1 SH3-swapped strains in stress condition: 10.0558
DMSO.2.
  growth of ABP1 SH3-swapped strains in stress condition: 10.999
DMSO.6.
  growth of ABP1 SH3-swapped strains in stress condition: 9.863
DMSO.8.
  growth of ABP1 SH3-swapped strains in stress condition: 9.083
Ethanol.2.
  growth of ABP1 SH3-swapped strains in stress condition: 10.7656
Ethanol.6.
  growth of ABP1 SH3-swapped strains in stress condition: 10.3279
Ethanol.8.
  growth of ABP1 SH3-swapped strains in stress condition: 10.22
Galactose.2.
  growth of ABP1 SH3-swapped strains in stress condition: 10.8019
Glycerol.2.
  growth of ABP1 SH3-swapped strains in stress condition: 9.823
Hydroxyurea.25mM
  growth of ABP1 SH3-swapped strains in stress condition: 10.7882
Hygromycin.190uM
  growth of ABP1 SH3-swapped strains in stress condition: 10.9875
Hygromycin.19uM
  growth of ABP1 SH3-swapped strains in stress condition: 10.9831
Hygromycin.95uM
  growth of ABP1 SH3-swapped strains in stress condition: 10.9742
MMS.0.004.
  growth of ABP1 SH3-swapped strains in stress condition: 10.989
MMS.0.02.
  growth of ABP1 SH3-swapped strains in stress condition: 10.7926
MMS.0.04.
  growth of ABP1 SH3-swapped strains in stress condition: 10.0504
Menadione.100uM
  growth of ABP1 SH3-swapped strains in stress condition: 10.5651
Menadione.200uM
  growth of ABP1 SH3-swapped strains in stress condition: 10.4599
Menadione.50uM
  growth of ABP1 SH3-swapped strains in stress condition: 10.8547
NaCl.0.25M
  growth of ABP1 SH3-swapped strains in stress condition: 10.7663
NaCl.1M
  growth of ABP1 SH3-swapped strains in stress condition: 9.587
Nitroquinoline.10uM
  growth of ABP1 SH3-swapped strains in stress condition: 10.765
Nitroquinoline.50uM
  growth of ABP1 SH3-swapped strains in stress condition: 10.634
Nystatin.0.01uM
  growth of ABP1 SH3-swapped strains in stress condition: 10.9089
Nystatin.0.1uM
  growth of ABP1 SH3-swapped strains in stress condition: 10.9679
Raffinose.2.
  growth of ABP1 SH3-swapped strains in stress condition: 10.9939
Rapamycin.10nM
  growth of ABP1 SH3-swapped strains in stress condition: 9.886
Rapamycin.50nM
  growth of ABP1 SH3-swapped strains in stress condition: 9.402
SC.pH3
  growth of ABP1 SH3-swapped strains in stress condition: 10.4061
SC.pH6
  growth of ABP1 SH3-swapped strains in stress condition: 11.0349
SDS.0.01.
  growth of ABP1 SH3-swapped strains in stress condition: 10.9539
SDS.0.02.
  growth of ABP1 SH3-swapped strains in stress condition: 10.9685
SDS.0.05.
  growth of ABP1 SH3-swapped strains in stress condition: 10.8165
Sorbitol.10mM
  growth of ABP1 SH3-swapped strains in stress condition: 10.9792
Sorbitol.1mM
  growth of ABP1 SH3-swapped strains in stress condition: 10.9728
Sorbitol.5mM
  growth of ABP1 SH3-swapped strains in stress condition: 10.9245

B2: SDC25 (protein, UniProt P0CF34 1-1048, looked up)
Putative truncated guanine …: MPITSSPDLFYLNDCDVVYWYDLTRLVCHYVNLTERDLLANEREKFLTSLDLLTAQITYVYMLFRNLRLVEDSFKKTLKKLIYTLSRFSINANIWFHSTLFEEREAIASQKDPERRSPLLQSILGTFQKFHFLLRLLHFLSNPNELTILPQLTPRFFKDSFNTISWNNPFLRKRLNQHMSHDLPRQMIKAVAGASGIVAENIDEIPASKQGTSCSSETSHHSPSAPFQRRRRGTIFSNVSGSSDESDTIWSKRKKPYPLNEETLSLVRARKKQLDGKLKQMIKSANEYLSNTANFSKMLNFEMNFKTYEEVSGTIPIIDILENLDLTIFLNLRELGDENRVFDEDVAIDDEDEEFLKHSLSSLSYILSDYFNMKQYFHDVVVKFIIVAQHLTLEDPFVFSPMQNDLPTGYYEPMKPSSLNLDNAKDKKNGSQNTDIQEEEDEYEPDPDSLILFHNLINQDSDFNDLKFFNLAHVFKKSCDDYFDVLKLAIEFVNQLILERENLLNYAARMMKNNITELLLRGEEGYGSYDGGETAEKSDTNAVYADSDTKDNDEWRDSQVKLPRYLQREYDSELIWGSNNRIKGGSKHALISYLTDNEKKDLFFDITFLITFRSIFTTTEFLSYLISQYNLDPPEDLCFEEYNEWVTKKLIPVKCRVVEIMTTFFKQYWFLGYDEPDLATLNLDYFAQVAIKENITGSVELLKEVNQKFKHGNIQEATAPMKTLDQQICQDHYSGTLYSTTESILAVDPVLFATQLTILEHEIYCEITIFDCLQKIWKNKYTKSYGASPGLNEFISFANKLTNFISYSVVKEADKSKRAKLLSHFIFIAEYCRKFNNFSSMTAIISALYSSPIYRLEKTWQAVIPQTRDLLQSLNKLMDPKKNFINYRNELKSLHSAPCVPFFGVYLSDLTFTDSGNPDYLVLEHGLKGVHDEKKYINFNKRSRLVDILQEIIYFKKTHYDFTKDRTVIECISNSLENIPHIEKQYQLSLIIEPKPRKKVVPNSNSNNKSQEKSRDDQTDEGKTSTKKDRFPKFQLHKTKKKAPKVSK
Bathophenanthroline.0.1uM
  growth of ABP1 SH3-swapped strains in stress condition: 10.8364
Bathophenanthroline.10uM
  growth of ABP1 SH3-swapped strains in stress condition: 10.6904
Bathophenanthroline.1uM
  growth of ABP1 SH3-swapped strains in stress condition: 10.7994
CaCl2.100mM
  growth of ABP1 SH3-swapped strains in stress condition: 10.8248
CaCl2.250mM
  growth of ABP1 SH3-swapped strains in stress condition: 10.7599
CaCl2.500mM
  growth of ABP1 SH3-swapped strains in stress condition: 10.2626
Caffein.10mM
  growth of ABP1 SH3-swapped strains in stress condition: 10.0769
Caffein.2mM
  growth of ABP1 SH3-swapped strains in stress condition: 11.0485
CdCl2.100uM
  growth of ABP1 SH3-swapped strains in stress condition: 9.5
CdCl2.10uM
  growth of ABP1 SH3-swapped strains in stress condition: 10.8639
CdCl2.50uM
  growth of ABP1 SH3-swapped strains in stress condition: 9.958
CuSO4.1mM
  growth of ABP1 SH3-swapped strains in stress condition: 10.5113
CuSO4.5mM
  growth of ABP1 SH3-swapped strains in stress condition: 8.27
Cycloheximide.0.05.uM
  growth of ABP1 SH3-swapped strains in stress condition: 11.0819
Cycloheximide.0.2.uM
  growth of ABP1 SH3-swapped strains in stress condition: 10.7047
Cycloheximide.0.5.uM
  growth of ABP1 SH3-swapped strains in stress condition: 10.178
DMSO.2.
  growth of ABP1 SH3-swapped strains in stress condition: 11.0639
DMSO.6.
  growth of ABP1 SH3-swapped strains in stress condition: 9.8939
DMSO.8.
  growth of ABP1 SH3-swapped strains in stress condition: 9.304
Ethanol.2.
  growth of ABP1 SH3-swapped strains in stress condition: 10.7995
Ethanol.6.
  growth of ABP1 SH3-swapped strains in stress condition: 10.2862
Ethanol.8.
  growth of ABP1 SH3-swapped strains in stress condition: 10.1201
Galactose.2.
  growth of ABP1 SH3-swapped strains in stress condition: 10.8278
Glycerol.2.
  growth of ABP1 SH3-swapped strains in stress condition: 9.649
Hydroxyurea.25mM
  growth of ABP1 SH3-swapped strains in stress condition: 10.7663
Hygromycin.190uM
  growth of ABP1 SH3-swapped strains in stress condition: 10.9932
Hygromycin.19uM
  growth of ABP1 SH3-swapped strains in stress condition: 11.0621
Hygromycin.95uM
  growth of ABP1 SH3-swapped strains in stress condition: 11.0036
MMS.0.004.
  growth of ABP1 SH3-swapped strains in stress condition: 10.9622
MMS.0.02.
  growth of ABP1 SH3-swapped strains in stress condition: 10.7008
MMS.0.04.
  growth of ABP1 SH3-swapped strains in stress condition: 9.99
Menadione.100uM
  growth of ABP1 SH3-swapped strains in stress condition: 10.5981
Menadione.200uM
  growth of ABP1 SH3-swapped strains in stress condition: 10.4339
Menadione.50uM
  growth of ABP1 SH3-swapped strains in stress condition: 10.8229
NaCl.0.25M
  growth of ABP1 SH3-swapped strains in stress condition: 10.7913
NaCl.1M
  growth of ABP1 SH3-swapped strains in stress condition: 9.689
Nitroquinoline.10uM
  growth of ABP1 SH3-swapped strains in stress condition: 10.6447
Nitroquinoline.50uM
  growth of ABP1 SH3-swapped strains in stress condition: 10.5332
Nystatin.0.01uM
  growth of ABP1 SH3-swapped strains in stress condition: 11.0104
Nystatin.0.1uM
  growth of ABP1 SH3-swapped strains in stress condition: 10.9861
Raffinose.2.
  growth of ABP1 SH3-swapped strains in stress condition: 11.0244
Rapamycin.10nM
  growth of ABP1 SH3-swapped strains in stress condition: 9.868
Rapamycin.50nM
  growth of ABP1 SH3-swapped strains in stress condition: 9.322
SC.pH3
  growth of ABP1 SH3-swapped strains in stress condition: 10.4118
SC.pH6
  growth of ABP1 SH3-swapped strains in stress condition: 11.0555
SDS.0.01.
  growth of ABP1 SH3-swapped strains in stress condition: 10.9877
SDS.0.02.
  growth of ABP1 SH3-swapped strains in stress condition: 11.0022
SDS.0.05.
  growth of ABP1 SH3-swapped strains in stress condition: 10.9318
Sorbitol.10mM
  growth of ABP1 SH3-swapped strains in stress condition: 10.9817
Sorbitol.1mM
  growth of ABP1 SH3-swapped strains in stress condition: 11.0284
Sorbitol.5mM
  growth of ABP1 SH3-swapped strains in stress condition: 10.9056
